Consider five molecules from PMC5603731, “The SET1 Complex Selects Actively Transcribed Target Genes via Multivalent Interaction with CpG Island Chromatin” (Cell Reports, 2017).

The subject of experiment [1] is mouse C127 cells. Description: FRAP, nuclear mobility of GFP fusion proteins. The following applies: compared to wild-type GFP-CFP1. Format: cell-based. Here is the method: FRAP experiments were performed on an UltraView spinning disk microscope (Perkin Elmer) equipped with an EM-CCD camera (Hamamatsu) using a 60x/1.4NA oil objective. 50 pre-bleach and 1,000 post-bleach images were captured at a rate of 8 frames per second (fps) (Figures 1B and C) after bleaching a circular diffraction limited spot of ∼2.5 μm diameter using a 488-nm laser line at 100% transmission. Alternatively, to capture the rapid recovery of the P/C/S^∗ mutant effectively, we used an acquisition rate of 13 fps (Figures 1E and F). FRAP curves were calculated in MATLAB, normalizing for the initial conditions (brightness of the cell and brightness of the spot) and corrected for acquisition photobleaching over time ([Mueller et al., 2012]). Half recovery times (t1/2) were calculated using a biexponential fit. Briefly, this involved deriving t1/2 values from individual cells (Figures S1F and S1G) and then collecting the distribution of t1/2 values across biological triplicates for the same transgene (Figures S1H and S1I). To compare the dynamics of individual GFP-CFP1 transgenes, a Student’s t test was then used to calculate the probability (p) that there was no difference between the wild-type and mutant versions of CFP1.
Supplementary Experimental Procedures: […]
Fluorescence recovery after photobleaching (FRAP) […]

The target in experiment [2] is CFP1 PHD domain. Description: other fluorescence titration; intrinsic fluorescence of the CFP1 PHD finger, excitation 280 nm, emission 320-380 nm; increasing concentrations of histone peptide; 20 mM Tris-HCl pH 6.8, 100 mM NaCl, 2.5 mM DTT; 25°C.
In experiment [3] the target is CFP1 PHD domain. Description: NMR titration; 1H,15N HSQC of 0.1-0.2 mM uniformly 15N-labelled CFP1 PHD finger; histone tail peptides added stepwise; 20 mM Tris-HCl pH 6.8, 100 mM NaCl, 2.5 mM DTT, 7% D2O; 298 K.

No end group written: not given here.

In the case of GFP-SET1A: GFP-tagged wild-type SET1A, in experiment [1], the “Nuclear mobility (FRAP)” value was “slightly less mobile than GFP-CFP1”.

B1: H3K4me2 peptide (peptide)
chain: ARTK(dimethyl)QTARKSTG
As to B1, in experiment [2], the Kd (as a rule, the constant that tells how readily two partners part at equilibrium) was 9.1 µM.

B2: H3K4me3 peptide (peptide)
chain: ARTK(trimethyl)QTARKSTG
In turn, B2 came in with a Kd in experiment [2] of 1.3 µM.

B3: unmodified H3K4me0 peptide (peptide)
chain: ARTKQTARKSTG
modifications: here or on the partner: zinc-bound PHD finger; 15N-labelled for NMR. Construct limits are not in the text shown, so the UniProt PHD-type zinc finger limits are used; human is inferred from the NP_001095124.1 alignment and th
B3 came in with a Kd in experiment [3] of 373 µM.

B4: H3K4me1 peptide (peptide)
chain: ARTK(Me)QTARKSTG
In the case of B4, the Kd in experiment [2] was 64 µM.
